# Assay results: paper PMC6242706 (Molecular Cell, 2018)
# Positions count from the first letter of the chain named. In names and notes the source's numbering stands.
# B1: UbcH5a (human UBE2D1), without GST (enzyme)
# chain: not shown
# B2: GST-UbcH5a (human UBE2D1, wild-type) (enzyme)
# chain: not shown
# B3: GST-UbcH5a S22R (human UBE2D1 S22R) (enzyme)
# chain: not shown
# Legend:
# Mouse UHRF1^ΔMW (3-782) [1] = molecular target: T1, Mouse UHRF1^ΔMW (3-782) (mouse, UniProt Q8VDF2 3-782); assay: cross-linking
# T1 sequence: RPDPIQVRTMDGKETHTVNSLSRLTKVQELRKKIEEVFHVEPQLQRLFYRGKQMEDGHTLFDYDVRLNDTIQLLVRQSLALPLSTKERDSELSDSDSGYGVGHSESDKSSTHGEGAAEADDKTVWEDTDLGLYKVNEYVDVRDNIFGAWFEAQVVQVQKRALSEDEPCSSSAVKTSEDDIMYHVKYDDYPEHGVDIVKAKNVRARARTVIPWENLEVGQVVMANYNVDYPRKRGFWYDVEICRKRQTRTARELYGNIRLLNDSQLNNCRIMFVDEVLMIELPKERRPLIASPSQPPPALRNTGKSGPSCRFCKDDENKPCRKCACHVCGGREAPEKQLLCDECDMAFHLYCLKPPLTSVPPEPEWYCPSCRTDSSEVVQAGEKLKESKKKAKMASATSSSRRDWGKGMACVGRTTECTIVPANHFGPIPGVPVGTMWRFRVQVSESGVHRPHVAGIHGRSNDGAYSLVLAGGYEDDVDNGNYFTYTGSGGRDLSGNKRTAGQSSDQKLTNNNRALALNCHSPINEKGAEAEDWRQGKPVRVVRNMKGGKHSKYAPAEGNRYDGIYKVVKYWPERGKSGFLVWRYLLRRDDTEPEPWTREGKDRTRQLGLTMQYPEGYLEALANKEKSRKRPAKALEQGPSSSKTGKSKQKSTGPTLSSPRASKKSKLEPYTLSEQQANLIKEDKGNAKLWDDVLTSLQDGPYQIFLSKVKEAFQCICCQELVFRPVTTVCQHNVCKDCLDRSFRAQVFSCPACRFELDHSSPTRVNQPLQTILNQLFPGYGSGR
# [2] = molecular target: T2, Mouse UHRF1 (1-782), wild-type with the native N terminus (mouse, UniProt Q8VDF2 1-782); assay: cross-linking
# T2 sequence: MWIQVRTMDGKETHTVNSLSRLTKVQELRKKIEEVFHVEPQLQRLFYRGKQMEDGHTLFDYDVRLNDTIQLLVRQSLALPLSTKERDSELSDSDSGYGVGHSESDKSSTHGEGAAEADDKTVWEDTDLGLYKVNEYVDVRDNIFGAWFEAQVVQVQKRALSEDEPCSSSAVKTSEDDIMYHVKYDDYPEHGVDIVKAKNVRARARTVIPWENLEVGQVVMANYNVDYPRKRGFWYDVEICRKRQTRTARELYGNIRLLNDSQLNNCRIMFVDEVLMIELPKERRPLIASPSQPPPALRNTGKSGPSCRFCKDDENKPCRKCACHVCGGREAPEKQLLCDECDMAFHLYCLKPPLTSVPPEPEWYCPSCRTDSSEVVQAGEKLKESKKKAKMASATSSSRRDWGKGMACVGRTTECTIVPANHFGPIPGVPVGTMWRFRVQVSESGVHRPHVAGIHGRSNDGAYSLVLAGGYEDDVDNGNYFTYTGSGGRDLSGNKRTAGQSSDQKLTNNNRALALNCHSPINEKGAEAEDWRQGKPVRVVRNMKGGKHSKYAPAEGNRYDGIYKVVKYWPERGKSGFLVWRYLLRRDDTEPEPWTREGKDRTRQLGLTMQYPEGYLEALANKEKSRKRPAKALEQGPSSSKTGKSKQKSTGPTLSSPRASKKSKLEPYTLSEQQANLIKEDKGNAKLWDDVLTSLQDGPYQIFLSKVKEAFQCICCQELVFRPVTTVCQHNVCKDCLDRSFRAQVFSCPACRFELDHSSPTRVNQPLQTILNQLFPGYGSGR
# [3] = molecular target: T2, Mouse UHRF1 (1-782), wild-type with the …; assay: pull-down
# Mouse UHRF1^ΔMW (3-782) [4] = molecular target: T1, Mouse UHRF1^ΔMW (3-782); assay: pull-down
# [5] = molecular target: T3, Mouse UHRF1 (1-782) F46A point mutant (mouse, UniProt Q8VDF2 1-782, F46A); assay: pull-down
# T3 sequence: T2 sequence with F46A
binding result (Mouse UHRF1^ΔMW (3-782) [1]),binding result [2],binding result [3],binding result (Mouse UHRF1^ΔMW (3-782) [4]),binding result [5],Binder
binds,binds,–,–,–,B1
–,–,binds,binds,binds,B2
–,–,binds,–,–,B3
